Data on 15 molecules can be found in patent US20190241886A1 (ADAGENE, published 2019).

Assay [1] addresses T1, Recombinant human CTLA4-Fc (human, UniProt P16410 36-161, limits assumed).
T1 construct: Coated on the ELISA plate at 1 ug/mL; also called antigen; not shown: Fc part
T1 sequence (looked up): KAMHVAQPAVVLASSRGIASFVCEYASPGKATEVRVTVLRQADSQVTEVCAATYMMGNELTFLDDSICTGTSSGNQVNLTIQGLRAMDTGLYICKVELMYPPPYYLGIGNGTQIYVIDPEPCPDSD
In words: ELISA EC50 divided by EC50 of parental TY21580, data batch 1. On the procedure: (§1) Recombinant human CTLA4-Fc was diluted to 1μg/mL in PBS and coated on a Maxisorp plate at 4° C. overnight. Plates were blocked with PBS supplemented with 3% non-fat milk at 37° C. for 1 hour. After washing, 100 μL of 3-fold serial dilutions of antibodies were added to each well. After incubation at 37° C. for 1 hour, plates were washed four times, and 100 μL HRP conjugated anti-human IgG (Fab specific) (1:6000 dilution) was added to each well. Plates were incubated at 37° C. for 1 hour, washed four times, and then 50 μL TMB substrate solution was added to each well, and the plate was incubated at room temperature. Absorbance at 450 nm was measured after the reactions were stopped with 50 μL H₂SO₄ per well. The EC₅₀ was evaluated by fitting the ELISA data using the asymmetrical sigmoidal (five-parameter logistic equation) model of GraphPad Prism 6 software.

Assay [2] addresses T1, Recombinant human CTLA4-Fc. In words: ELISA EC50 divided by EC50 of parental TY21580, data batch 2. The protocol:
as §1
(ELISA stands for enzyme-linked immunosorbent assay.)

The target in assay [3] is T1, Recombinant human CTLA4-Fc. In words: ELISA EC50 divided by EC50 of parental TY21580, third block of Table 6. On the procedure:
as §1

Assay [4] deals with T2, Human CD137 displayed on yeast cells (human, UniProt Q07011 24-186, limits assumed).
T2 construct: Yeast cells displaying human CD137, stained with serial dilutions of antibody; also called human CD137 on the cell surface
In words: flow cytometry on yeast cells displaying human CD137; ratio to parental TY21242. On the procedure: (§2) The masking efficiency was then measured through flow cytometry. Briefly, yeast cells displaying human CD137 on their surface washed twice with PB SA buffer, and 50 μL (1×10̂6) cells were dispensed into each well of a 96 well plate. Cells were then incubated with 3-fold serial dilutions of antibodies for 1 hour on ice, washed once with PBSA buffer, and then incubated with 100 μL of PE conjugated mouse anti-human Fc (1 μg/ml) for 30 minutes on ice. The cells were then washed once prior to analysis by flow cytometry (Beckman® CytoFlex).
(In general: A flow cytometer gives signals particle by particle.)

Assay [5] has as its target T2, Human CD137 displayed on yeast cells. Description: flow cytometry on yeast cells displaying human CD137; column headed EC50 / KD (nM). The protocol:
as §2

B1: TY22404 (antibody, IgG1, V domains shown)
VH: EVQLVESGGGLVQPGGSLRLSCAASGYSISSGYHWSWIRQAPGKGLEWLARIDWDDDKYYSTSLKSRLTISRDNSKNTLYLQLNSLRAEDTAVYYCARSYVYFDYWGQGTLVTVSS
VL: EVGSYPNPSSDCVPYYYACAYSGRSAGGGGSPLGLAGSGGSDIQLTQSPSSLSASVGDRVTITCRASQSVRGRFLAWYQQKPGKAPKLLIYDASNRATGIPSRFSGSGSGTDFTLTISSLQPEDFATYYCQQSSSWPPTFGQGTKVEIKR
notes: IgG1 from HEK293F cells, uncleaved; also called peptide name B13197
Turning to B1, the Masking efficiency in assay [1] was 826; in assay [2], 385.

B2: TY22563 (antibody, V domains shown)
VH: EVQLVESGGGLVQPGGSLRLSCAASGYSISSGYHWSWIRQAPGKGLEWLARIDWDDDKYYSTSLKSRLTISRDNSKNTLYLQLNSLRAEDTAVYYCARSYVYFDYWGQGTLVTVSS
VL: EVGSYYSAYPACDSHYPYCQSSGRSAGGGGSPLGLAGSGGSDIQLTQSPSSLSASVGDRVTITCRASQSVRGRFLAWYQQKPGKAPKLLIYDASNRATGIPSRFSGSGSGTDFTLTISSLQPEDFATYYCQQSSSWPPTFGQGTKVEIKR
notes: IgG1, uncleaved; mask derived from B13192 or B13197 to remove a potential glycosylation site
For the molecule B2, in assay [3], the Masking efficiency stood at 144.

B3: TY22566 (antibody, V domains shown)
VH: EVQLVESGGGLVQPGGSLRLSCAASGYSISSGYHWSWIRQAPGKGLEWLARIDWDDDKYYSTSLKSRLTISRDNSKNTLYLQLNSLRAEDTAVYYCARSYVYFDYWGQGTLVTVSS
VL: EVGSYPNPASDCVPYYYACAYSGRSAGGGGSPLGLAGSGGSDIQLTQSPSSLSASVGDRVTITCRASQSVRGRFLAWYQQKPGKAPKLLIYDASNRATGIPSRFSGSGSGTDFTLTISSLQPEDFATYYCQQSSSWPPTFGQGTKVEIKR
notes: as for B2
Consider B3, for which the Masking efficiency in assay [3] turned out to be 489.

B4: TY22564 (antibody, V domains shown)
VH: EVQLVESGGGLVQPGGSLRLSCAASGYSISSGYHWSWIRQAPGKGLEWLARIDWDDDKYYSTSLKSRLTISRDNSKNTLYLQLNSLRAEDTAVYYCARSYVYFDYWGQGTLVTVSS
VL: EVGSYYSAYPACDSHYPYCNSAGRSAGGGGSPLGLAGSGGSDIQLTQSPSSLSASVGDRVTITCRASQSVRGRFLAWYQQKPGKAPKLLIYDASNRATGIPSRFSGSGSGTDFTLTISSLQPEDFATYYCQQSSSWPPTFGQGTKVEIKR
notes: as for B2
As to B4, the Masking efficiency in assay [3] was found to be 117.

B5: TY22402 (antibody, IgG1, V domains shown)
VH: EVQLVESGGGLVQPGGSLRLSCAASGYSISSGYHWSWIRQAPGKGLEWLARIDWDDDKYYSTSLKSRLTISRDNSKNTLYLQLNSLRAEDTAVYYCARSYVYFDYWGQGTLVTVSS
VL: EVGSYIVHHSDCDAFYPYCDSSGRSAGGGGSPLGLAGSGGSDIQLTQSPSSLSASVGDRVTITCRASQSVRGRFLAWYQQKPGKAPKLLIYDASNRATGIPSRFSGSGSGTDFTLTISSLQPEDFATYYCQQSSSWPPTFGQGTKVEIKR
notes: IgG1 from HEK293F cells, uncleaved; also called peptide name B13180
With B5, the Masking efficiency in assay [1] amounted to 2210; in assay [2], 377.

B6: TY22565 (antibody, V domains shown)
VH: EVQLVESGGGLVQPGGSLRLSCAASGYSISSGYHWSWIRQAPGKGLEWLARIDWDDDKYYSTSLKSRLTISRDNSKNTLYLQLNSLRAEDTAVYYCARSYVYFDYWGQGTLVTVSS
VL: EVGSYPQPSSDCVPYYYACAYSGRSAGGGGSPLGLAGSGGSDIQLTQSPSSLSASVGDRVTITCRASQSVRGRFLAWYQQKPGKAPKLLIYDASNRATGIPSRFSGSGSGTDFTLTISSLQPEDFATYYCQQSSSWPPTFGQGTKVEIKR
notes: as for B2
In the case of B6, in assay [3], the Masking efficiency came to 632.

B7: TY22401 (antibody, V domains shown)
VH: EVQLVESGGGLVQPGGSLRLSCAASGYSISSGYHWSWIRQAPGKGLEWLARIDWDDDKYYSTSLKSRLTISRDNSKNTLYLQLNSLRAEDTAVYYCARSYVYFDYWGQGTLVTVSS
VL: EVGSYNFVADSCPDHPYPCSASGRSAGGGGSPLGLAGSGGSDIQLTQSPSSLSASVGDRVTITCRASQSVRGRFLAWYQQKPGKAPKLLIYDASNRATGIPSRFSGSGSGTDFTLTISSLQPEDFATYYCQQSSSWPPTFGQGTKVEIKR
notes: IgG1 from HEK293F cells, uncleaved; also called peptide name B13189
As to B7, the Masking efficiency in assay [1] was determined as 110; in assay [2] it was 48.

B8: TY21242 (antibody, V domains shown)
VH: EVQLVESGGGLVQPGGSLRLSCAASGFSLSTGGVGVGWIRQAPGKGLEWLALIDWADDKYYSPSLKSRLTISRDNSKNTLYLQLNSLRAEDTAVYYCARGGSDTVIGDWFAYWGQGTLVTVSS
VL: DIQLTQSPSSLSASVGDRVTITCRASQSIGSYLAWYQQKPGKAPKLLIYDASNLETGVPSRFSGSGSGTDFTLTISSLQPEDFATYYCQQGYYLWTFGQGTKVEIK
notes: Anti-human-CD137 antibody; the isotype of the parent is not restated; also called parental antibody TY21242; parental CD137 antibody
B8: the Masking efficiency in assay [4] is 1. For the same molecule, the EC50 (usually the midpoint of the concentration-response curve) in assay [5] was found to be 0.28 nM.

B9: TY22596 (antibody, V domains shown)
VH: EVQLVESGGGLVQPGGSLRLSCAASGFSLSTGGVGVGWIRQAPGKGLEWLALIDWADDKYYSPSLKSRLTISRDNSKNTLYLQLNSLRAEDTAVYYCARGGSDTVIGDWFAYWGQGTLVTVSS
VL: EVGSYYHDYDDCRVLPRRCFNSGRSAGGGGSPLGLAGSGGSDIQLTQSPSSLSASVGDRVTITCRASQSIGSYLAWYQQKPGKAPKLLIYDASNLETGVPSRFSGSGSGTDFTLTISSLQPEDFATYYCQQGYYLWTFGQGTKVEIK
notes: Full IgG4 expressed in mammalian cells, uncleaved
As for B9, in assay [4], the Masking efficiency was 20.8. In assay [5], this molecule showed an EC50 of 5.86 nM.

B10: TY22598 (antibody, V domains shown)
VH: EVQLVESGGGLVQPGGSLRLSCAASGFSLSTGGVGVGWIRQAPGKGLEWLALIDWADDKYYSPSLKSRLTISRDNSKNTLYLQLNSLRAEDTAVYYCARGGSDTVIGDWFAYWGQGTLVTVSS
VL: EVGSYSNNFASCLWRHRSCADSGRSAGGGGSPLGLAGSGGSDIQLTQSPSSLSASVGDRVTITCRASQSIGSYLAWYQQKPGKAPKLLIYDASNLETGVPSRFSGSGSGTDFTLTISSLQPEDFATYYCQQGYYLWTFGQGTKVEIK
notes: as for B9
With B10, the Masking efficiency in assay [4] was 30.5. The molecule further yielded an EC50 in assay [5] of 8.61 nM.

B11: TY22591 (antibody, V domains shown)
VH: EVQLVESGGGLVQPGGSLRLSCAASGFSLSTGGVGVGWIRQAPGKGLEWLALIDWADDKYYSPSLKSRLTISRDNSKNTLYLQLNSLRAEDTAVYYCARGGSDTVIGDWFAYWGQGTLVTVSS
VL: EVGSYSSTHAHCHHSPANCISSGRSAGGGGSPLGLAGSGGSDIQLTQSPSSLSASVGDRVTITCRASQSIGSYLAWYQQKPGKAPKLLIYDASNLETGVPSRFSGSGSGTDFTLTISSLQPEDFATYYCQQGYYLWTFGQGTKVEIK
notes: as for B9
For the molecule B11, the Masking efficiency in assay [4] turned out to be 38.3. Also, a half-maximal response in assay [5] (EC50) required 10.8 nM.

B12: TY22586 (antibody, V domains shown)
VH: EVQLVESGGGLVQPGGSLRLSCAASGFSLSTGGVGVGWIRQAPGKGLEWLALIDWADDKYYSPSLKSRLTISRDNSKNTLYLQLNSLRAEDTAVYYCARGGSDTVIGDWFAYWGQGTLVTVSS
VL: EVGSYPTDLDACADAPNHCHFSGRSAGGGGSPLGLAGSGGSDIQLTQSPSSLSASVGDRVTITCRASQSIGSYLAWYQQKPGKAPKLLIYDASNLETGVPSRFSGSGSGTDFTLTISSLQPEDFATYYCQQGYYLWTFGQGTKVEIK
notes: as for B9
As to B12, the Masking efficiency in assay [4] was determined as 300 fold.

B13: TY22594 (antibody, V domains shown)
VH: EVQLVESGGGLVQPGGSLRLSCAASGFSLSTGGVGVGWIRQAPGKGLEWLALIDWADDKYYSPSLKSRLTISRDNSKNTLYLQLNSLRAEDTAVYYCARGGSDTVIGDWFAYWGQGTLVTVSS
VL: EVGSYDTDYDFCPILRHRCDSSGRSAGGGGSPLGLAGSGGSDIQLTQSPSSLSASVGDRVTITCRASQSIGSYLAWYQQKPGKAPKLLIYDASNLETGVPSRFSGSGSGTDFTLTISSLQPEDFATYYCQQGYYLWTFGQGTKVEIK
notes: as for B9
For B13, the Masking efficiency in assay [4] turned out to be 83.7. The EC50 in assay [5] came to 23.6 nM.

B14: TY22599 (antibody, V domains shown)
VH: EVQLVESGGGLVQPGGSLRLSCAASGFSLSTGGVGVGWIRQAPGKGLEWLALIDWADDKYYSPSLKSRLTISRDNSKNTLYLQLNSLRAEDTAVYYCARGGSDTVIGDWFAYWGQGTLVTVSS
VL: EVGSYTDNYDYCPRLRRKCYHSGRSAGGGGSPLGLAGSGGSDIQLTQSPSSLSASVGDRVTITCRASQSIGSYLAWYQQKPGKAPKLLIYDASNLETGVPSRFSGSGSGTDFTLTISSLQPEDFATYYCQQGYYLWTFGQGTKVEIK
notes: as for B9
With B14, the Masking efficiency in assay [4] turned out to be 348. The EC50 in assay [5] was 98.1 nM.

B15: TY22595 (antibody, V domains shown)
VH: EVQLVESGGGLVQPGGSLRLSCAASGFSLSTGGVGVGWIRQAPGKGLEWLALIDWADDKYYSPSLKSRLTISRDNSKNTLYLQLNSLRAEDTAVYYCARGGSDTVIGDWFAYWGQGTLVTVSS
VL: EVGSYNDYNYHCKWRPSRCHNSGRSAGGGGSPLGLAGSGGSDIQLTQSPSSLSASVGDRVTITCRASQSIGSYLAWYQQKPGKAPKLLIYDASNLETGVPSRFSGSGSGTDFTLTISSLQPEDFATYYCQQGYYLWTFGQGTKVEIK
notes: as for B9
With B15, the Masking efficiency in assay [4] is 379. The molecule also returned an EC50 in assay [5] of 107 nM.
